Twelve molecules from patent publication US20250326813A1 (ELPIS BIOPHARMACEUTICALS, published 2025) can be followed below.

Positions count from the first letter of the chain named.

The chains are these.
T1: human IL2Rα Fc fusion protein (human, UniProt P01589 22-213, limits assumed)
T1 construct: also called CD25; not shown: Fc part
T1 sequence (looked up): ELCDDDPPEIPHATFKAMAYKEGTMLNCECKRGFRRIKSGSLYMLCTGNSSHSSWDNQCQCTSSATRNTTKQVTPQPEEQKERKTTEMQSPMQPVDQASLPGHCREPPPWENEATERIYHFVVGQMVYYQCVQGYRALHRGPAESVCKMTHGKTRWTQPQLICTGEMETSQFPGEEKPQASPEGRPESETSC

T2: human IL2Rβ Fc fusion protein (human, UniProt P14784 27-239)
T2 construct: also called ILR2β; CD122; not shown: Fc part
T2 sequence (looked up): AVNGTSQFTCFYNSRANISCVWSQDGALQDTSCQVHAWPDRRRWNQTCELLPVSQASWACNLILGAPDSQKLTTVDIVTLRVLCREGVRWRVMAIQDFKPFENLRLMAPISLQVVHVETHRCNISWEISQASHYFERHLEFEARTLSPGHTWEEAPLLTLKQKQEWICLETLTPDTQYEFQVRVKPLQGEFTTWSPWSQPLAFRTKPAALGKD

B1: EP564 (clone 2021EP22-E11), E. coli-produced (ligand)
chain: APASSSTKKTQLQLEHLLLDLQMILNGINNYKNPKLTRMLTFKFYMPKKATELKHLQCLEEELKPLEEVLNLAQSKNFHLRFKALIIEINFIVQLLKGSETTFMCEYADETATIVEFLNRWITFSQSIISTLT
B2: EP566 (clone 2021EP22-H09), E. coli-produced (ligand)
chain: APASSSTKKTQLQLEHLLLDLQMILNGINNYKNPKLTRMLTFKFYMPKKATELKHLQCLEEELKPLEEVLNLAQSKNFHLRLTHLRNVIGVILVQLKGSETTFMCEYADETATIVEFLNRWITFSQSIISTLT
B3: EP565 (clone 2021EP22-F10), E. coli-produced (ligand)
chain: B1 chain with F82S, K83R, A84Q, I87S, E88N, I89M, F91G, V93I, Q94L, L95K
B4: EP571 (clone 2021EP22-H02), E. coli-produced (ligand)
chain: APASSSTKKTQLQLEHLLLDLQMILNGINNYKNPKLTRMLTFKFYMPKKATELKHLQCLEEELKPLEEVLNLAQSKNFHLRPSELMATMRVPVQALKGSETTFMCEYADETATIVEFLNRWITFSQSIISTLT
B5: EP578 (clone 2021EP16-H02), E. coli-produced (ligand)
chain: APASSSTKKTQLQLEHLLLDLQMILNGINNYKNPKLTRMLTFKFYMPKKATELKHLQCLEEELKPLEEVLNLAQSKNFHLTTRDVVMTMARIDLELKGSETTFMCEYADETATIVEFLNRWITFSQSIISTLT
B6: EP572 (clone 2021EP21-C03), E. coli-produced (ligand)
chain: APASSSTKKTQLQLEHLLLDLQMILNGINNYKNPKLTRMLTFKFYMPKKATELKHLQCLEEELKPLEEVLNLAQSKNFHLRARDIVRNAKVGVQELKGSETTFMCEYADETATIVEFLNRWITFSQSIISTLT
B7: EP574 (clone 2021EP22-B04), E. coli-produced (ligand)
chain: B5 chain with T81F, R83K, V85L, V86T, M87S, A90Q, R91I, I92L, D93V, E95Q
B8: EP570 (clone 2021EP21-E03), E. coli-produced (ligand)
chain: APASSSTKKTQLQLEHLLLDLQMILNGINNYKNPKLTRMLTFKFYMPKKATELKHLQCLEEELKPLEEVLNLAQSKNFHLSSSGLLGDVWVIVLDLKGSETTFMCEYADETATIVEFLNRWITFSQSIISTLT
B9: EP569 (clone 2021EP22-E03), E. coli-produced (ligand)
chain: APASSSTKKTQLQLEHLLLDLQMILNGINNYKNPKLTRMLTFKFYMPKKATELKHLQCLEEELKPLEEVLNLAQSKNFHLRRKESINHMIVVFPVLKGSETTFMCEYADETATIVEFLNRWITFSQSIISTLT
B10: EP583 (clone 2021EP16-H10), E. coli-produced (ligand)
chain: B6 chain with R81S, R83I, I85L, V86M, R87S, N88S, A89V, G92V, Q94W, E95K
B11: EP586 (clone 2021EP16-E07), E. coli-produced (ligand)
chain: B6 chain with A82P, I85S, V86R, N88L, A89I, K90S, G92I, Q94F, E95R
B12: EP579 (clone 2021EP16-E11), E. coli-produced (ligand)
chain: APASSSTKKTQLQLEHLLLDLQMILNGINNYKNPKLTRMLTFKFYMPKKATELKHLQCLEEELKPLEEVLNLAQSKNFHLRPSYIVSYTNVFPLVLKGSETTFMCEYADETATIVEFLNRWITFSQSIISTLT

For one test, the target named is T1, human IL2Rα Fc fusion protein. The test can be described thus: SPR (Biacore T200), receptor captured on Protein A chip, IL2 at 100 nM and 20 nM. The protocol: The assay was run with Biacore T200 control software version 2.0. For each cycle, 1 μg/mL of human IL2Rβ or IL2Rα was captured for 60 seconds at flow rate of 10 μL/min on flow cell 2 in 1× HBSP buffer on Protein A sensor chip. 100 nM and 20 nM of HIS tag purified engineered IL2 mutant was injected onto both reference flow cell 1 and IL2Rβ or IL2Rα captured flow cell 2 for 150 seconds at flow rate of 30 μL/min followed by washing for 300 seconds. The flow cells were then regenerated with Glycine pH 2 for 60 seconds at a flow rate of 30 μL/mins. The kinetics data was analyzed with Biacore T200 evaluation software 3000. The specific binding response unit was derived from subtraction of binding to reference flow cell 1 from target flow cell 2.
(Surface plasmon resonance follows binding to a sensor surface in real time, without labels.)
By Kd is commonly meant the equilibrium constant for the complex coming apart. As to B1, the Kd came to 18 nM.
B2 returned a Kd of 523 nM.
Still for that read-out and setting: the value for B3 was 142 nM.
B4 gave a dissociation constant Kd of 117 nM.
Still for that read-out and setting: then B5, with 9340 nM; and B6, with 75.5 nM.
As to B7, the Kd was found to be 207 nM. This Kd lies about 2.7-fold higher than the previous one.
Take B8: binding was characterised by a dissociation constant (Kd) of 21.3 nM.
Molecule B9 yielded a Kd of 47.8 nM.

The next test shares this target. The test can be described thus: ELISA, single concentration, anti-flag detection, E. coli-produced clone. The protocol: (§1) Supernatants containing engineered IL2 mutants were assessed with sandwich ELISA assay to screen for IL2Rα binding. Briefly, 96-well plate was immobilized with human Fc and human IL2Rα, respectively, at a final concentration of 2 μg/mL in 1× PBS in total volume of 50 μL per well. The plate was incubated overnight at 4° C. followed by blocking with 200 μL of superblock per well for 1 hour. 100 μl of supernatant was added to both Fc and IL2Rα immobilized wells and incubated for 1 hour with shaking. The engineered IL2 mutant binding was detected by adding 50 μL of anti-Flag HRP diluted at 1:5000 in 1× PBST. In between each step, the plate was washed three times with 1× PBST in a plate washer. The plate was then developed with 50 μL of TMB substrate for five minutes and stopped by adding 50 μL of 2N sulfuric acid. The plate was read at OD450 nm using a Biotek plate reader and the binding and selectivity was analyzed.
as §1, with “Single clones were next screened for IL2Rβ binding. IL2Rβ binding screening ELISA was developed for the identification of individual” for “Supernatants containing”, “mutant.” for “mutants were assessed with sandwich ELISA assay to screen for IL2Rα binding.”, “IL2Rβ,” for “IL2Rα,”, “IL2Rβ” for “IL2Rα”
(§2) To further triage, the engineered IL2 clones with unique sequences were produced in E. coli. In short, the glycerol stock of each engineered agonist clone was inoculated into TB medium for overnight growth. The next day, cells from the overnight culture were inoculated into TB medium and grown to a cell density of OD₆₀₀ between 0.6-0.8. IPTG was added to a final concentration of 1 mM to induce the expression during culture at 30° C. overnight. The supernatant was collected by centrifugation.
B1 showed an OD450 nm of 0.086 OD450.
Consider B2, for which the OD450 nm came out at 0.251 OD450.
B3 had an OD450 nm of 0.105 OD450.
Same read-out and setting: the value for B4 was 0.423 OD450; that for B5 was 0.857 OD450; that for B6 was 0.079 OD450.
Molecule B7 registered an OD450 nm of 0.171 OD450.
On the same count and under the same terms, then B8, with 0.528 OD450; and B10, with 0.749 OD450; and B9, with 0.433 OD450.

Another test addresses T2, human IL2Rβ Fc fusion protein. Described as above. The protocol: as §1
as §1, with “Single clones were next screened for IL2Rβ binding. IL2Rβ binding screening ELISA was developed for the identification of individual” for “Supernatants containing”, “mutant.” for “mutants were assessed with sandwich ELISA assay to screen for IL2Rα binding.”, “IL2Rβ,” for “IL2Rα,”, “IL2Rβ” for “IL2Rα”
as §2
As to B4, the OD450 nm amounted to 0.653 OD450.
Still for that read-out and setting: the value for B6 was 0.143 OD450; that for B11 was 0.505 OD450; that for B10 was 0.323 OD450.
Still for that read-out and setting: then B12, with 0.611 OD450.
